Patent publication US20080171037A1 (Genentech, published 2008)

Target: T1, ECD of the Apo-2L receptor, DR5 (UniProt O14763 56-210, limits assumed)
T1 construct: extracellular domain; Comparison receptor
Assay: co-immunoprecipitation (anti-Flag sepharose or nickel-sepharose), Western blot with nickel-conjugated HRP
Protocol: The respective ligands (1 μg/ml) and receptors (1 μg/ml) were incubated for 1 hour at room temperature. The reaction mixtures were subjected to precipitation with anti-Flag antibody conjugated to sepharose beads (Kodak) (FIG. 8A, left) or nickel-sepharose (Qiagen) (FIG. 8A, right) by overnight incubation at 4° C. according to manufacturer's instructions and resolved by gel electrophoresis. The ligands were visualized by Western blot analysis with nickel-conjugated horseradish peroxidase. In FIG. 8A, molecular weight markers (kDa) are indicated on the left.

B1: His-tagged soluble Apo-3 Ligand (ligand)
chain: MGHHHHHHHHHHSSGHIDDDDKHMRASLSAQEPAQEELVAEEDQDPSELNPQTEESQDPAPFLNRLVRPRRSAPKGRKTRARRAIAAHYEVHPRPGQDGAQAGVDGTVSGWEEARINSSSPLRYNRQIGEFIVTRAGLYYLYCQVHFDEGKAVYLKLDLLVDGVLALRCLEEFSATAASSLGPQLRLCQVSGLLALRPGSSLRIRTLPWAHLKAAPFLTYFGLFQVH
notes: also called histidine tagged soluble Apo-3 Ligand; DNA30879
binding result: no binding (tested: 1 µg/ml ligand and 1 µg/ml receptor)
